Tests used:
[1] = target: human IR-A ECD construct (residues 1-917) (human); assay: cryo-EM structure
[2] = target: IR-A in cell membranes of human IM-9 lymphocytes (human (endogenous in IM-9)) (UniProt P06213); assay: radioligand binding

stoichiometry N (per IR-ECD dimer) [1]: 2
Kd [2]: 2.6 nM
Substance: S661 peptide

Reference: doi:10.1101/2025.08.05.667158
